{"source": "paper PMC9321536", "key": {"[1]": {"test": "confocal IF, colocalisation with calnexin, HEK 293T", "conditions": "glycan lost; control: wild type"}, "[2]": {"test": "surface FLAG IF, nonpermeabilized HEK 293T, cadherin marker", "conditions": "glycan lost; control: wild type"}}, "data": [{"protein": "SUCNR1/GPR91 (succinate receptor): N8A (protein) parent chain: MLGIMAWNATCKNWLAAEAALEKYYLSIFYGIEFVVGVLGNTIVVYGYIFSLKNWNSSNIYLFNLSVSDLAFLCTLPMLIRSYANGNWIYGDVLCISNRYVLHANLYTSILFLTFISIDRYLIIKYPFREHLLQKKEFAILISLAIWVLVTLELLPILPLINPVITDNGTTCNDFASSGDPNYNLIYSMCLTLLGFLIPLFVMCFFYYKIALFLKQRNRQVATALPLEKPLNLVIMAVVIFSVLFTPYHVMRNVRIASRLGSWKQYQCTQVVINSFYIVTRPLAFLNSVINPVFYFLLGDHFRDMLMNQLRHNFKSLTSFSRWAHELLLSFREK", "values": [{"measurement": "localisation_or_trafficking", "setting": "[1]", "result": "changes"}, {"measurement": "localisation_or_trafficking", "setting": "[2]", "result": "increases"}]}, {"protein": "SUCNR1/GPR91 (succinate receptor): N168A (protein) parent chain: MLGIMAWNATCKNWLAAEAALEKYYLSIFYGIEFVVGVLGNTIVVYGYIFSLKNWNSSNIYLFNLSVSDLAFLCTLPMLIRSYANGNWIYGDVLCISNRYVLHANLYTSILFLTFISIDRYLIIKYPFREHLLQKKEFAILISLAIWVLVTLELLPILPLINPVITDNGTTCNDFASSGDPNYNLIYSMCLTLLGFLIPLFVMCFFYYKIALFLKQRNRQVATALPLEKPLNLVIMAVVIFSVLFTPYHVMRNVRIASRLGSWKQYQCTQVVINSFYIVTRPLAFLNSVINPVFYFLLGDHFRDMLMNQLRHNFKSLTSFSRWAHELLLSFREK", "values": [{"measurement": "localisation_or_trafficking", "setting": "[1]", "result": "no change"}, {"measurement": "localisation_or_trafficking", "setting": "[2]", "result": "no change"}]}]}
